# Results as given in article PMC9058210 (Nature chemical biology, 2022).
# Biological target: the molecule itself
# Assay: crystal structure
protein,measurement,value
"SalC (enzyme, Salinispora tropica CNB440) MSEAVERNYDPGDVAIIGASCRFPGARNKEQYWDNLLHGREGVTFYAKDEIEVDETLINSPAYVRATGALDGYDEFDPAVFGVSDRMAAAMTPEHRVFLEASWEVMEDASYDPERVRGEVGVYASTNPQSAALYSSPPDWVSAGPEVMDRSNAWLPDTITSNVLYYLGLTGEAVTVTAVCSGFHYAVHLACQSLLLGQTDMAIAGGVMVRLPQRRGYLWEEGRILSRDGHCRPFDANGTGSVLASGVAVVLLKPLPQAVADRDHIYATVKGTAINNNGISAMAYGLAQPERLSACIAGAMQAGDVAPETVSMYEANGFGMPITDSLEVHAAHLAFGKQSGTCSIGAVKGNIGHAGVVAGGSGAVKAAFALYHRSLPPTINLTELNEEIDFPRTPFVPQLEPAAWQPECGIRRAGITALGGGGYNAHLVLEEPPRPVEREPENRRPRIVTLSALDDAAVSRQRAALSSWLAEHSDARLDDIAYSLNLGRKALPSRWAAVISTRDELLEVLSGDGKSGRVSRFGQERRADLARFRRTEDGLALGSGDEMRDVQALTELAAAWVQGERVNFEVLHADERSHRISLPNYPFARRRFWRTDW",stoichiometry N,4
